In patent publication US20260242735A1 (UNIVERSIT T BASEL, published 2026):

Legend:
Assay in all cases: alanine scan, flow cytometry, HEK293-T;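 note: antibody binding to each alanine-substituted CD33 mutant expressed transiently in HEK293-T, read as fluorescence minus background, mean of duplicates, relative to wild-type CD33 set as 100%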
human CD33 L270A = human CD33 L270A (human, UniProt P20138 18-364)
Method: (§1) An alanine scan on human CD33 was performed to the determine the residues on CD33 that are involved in binding to the antibodies investigated. […] Briefly, a mutation library of CD33 was created by high-throughput, site-directed mutagenesis. Each residue was individually mutated to alanine, with alanine codons mutated to serine. The mutant library was arrayed in 384-well microplates and transiently transfected into HEK293-T. Following transfection, cells were incubated with the indicated antibodies (IgG or Fab) at concentrations pre-determined using an independent immunofluorescence titration curve on wild type CD33. […] Binding of each antibody to each mutant clone was determined in duplicates. For each point, background fluorescence was subtracted from the raw data, which were then normalized to antibody reactivity with wild type CD33.
(§2) Critical residues for antibody binding (outlined in dark grey) were residues whose mutations led to a binding of the test Abs of less than 20%. Additional secondary residues (outlined in light grey) were identified that led to a binding of the test Abs of between 20 and 40% as compared to the wild type CD33.

human CD33 G256A = human CD33 G256A (human, UniProt P20138 18-364)
Method: as §1, §2

human CD33 R254A = human CD33 R254A (human, UniProt P20138 18-364)
human CD33 R254A, sequence (P20138 18-364 R254A limits assumed): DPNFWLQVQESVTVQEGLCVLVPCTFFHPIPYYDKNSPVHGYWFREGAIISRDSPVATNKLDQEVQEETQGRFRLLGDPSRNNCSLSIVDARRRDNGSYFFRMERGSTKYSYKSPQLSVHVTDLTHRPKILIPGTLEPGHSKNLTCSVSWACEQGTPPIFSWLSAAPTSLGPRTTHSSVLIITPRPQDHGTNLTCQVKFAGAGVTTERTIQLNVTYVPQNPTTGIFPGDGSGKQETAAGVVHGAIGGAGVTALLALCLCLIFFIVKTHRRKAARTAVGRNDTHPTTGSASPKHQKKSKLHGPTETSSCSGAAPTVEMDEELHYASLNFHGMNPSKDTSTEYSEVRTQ
Method: as §1, §2

human CD33 N297A = human CD33 N297A (human, UniProt P20138 18-364)
human CD33 N297A, sequence (P20138 18-364 N297A limits assumed): as the sequence (P20138 18-364 R254A limits assumed) above, with A237R, N280A counted along it
Method: as §1, §2

human CD33 F243A = human CD33 F243A (human, UniProt P20138 18-364)
human CD33 F243A, sequence (P20138 18-364 F243A limits assumed): as the sequence (P20138 18-364 R254A limits assumed) above, with F226A, A237R counted along it
Method: as §1, §2

human CD33 V267A = human CD33 V267A (human, UniProt P20138 18-364)
human CD33 V267A, sequence (P20138 18-364 V267A limits assumed): as the sequence (P20138 18-364 R254A limits assumed) above, with A237R, V250A counted along it
Method: as §1, §2

human CD33 K288A = human CD33 K288A (human, UniProt P20138 18-364)
human CD33 K288A, sequence (P20138 18-364 K288A limits assumed): as the sequence (P20138 18-364 R254A limits assumed) above, with A237R, K271A counted along it
Method: as §1, §2

human CD33 A290S = human CD33 A290S (human, UniProt P20138 18-364)
human CD33 A290S, sequence (P20138 18-364 A290S limits assumed): as the sequence (P20138 18-364 R254A limits assumed) above, with A237R, A273S counted along it
Method: as §1, §2

human CD33 C274A = human CD33 C274A (human, UniProt P20138 18-364)
human CD33 C274A, sequence (P20138 18-364 C274A limits assumed): as the sequence (P20138 18-364 R254A limits assumed) above, with A237R, C257A counted along it
Method: as §1, §2

human CD33 L277A = human CD33 L277A (human, UniProt P20138 18-364)
human CD33 L277A, sequence (P20138 18-364 L277A limits assumed): as the sequence (P20138 18-364 R254A limits assumed) above, with A237R, L260A counted along it
Method: as §1, §2

human CD33 K315A = human CD33 K315A (human, UniProt P20138 18-364)
human CD33 K315A, sequence (P20138 18-364 K315A limits assumed): as the sequence (P20138 18-364 R254A limits assumed) above, with A237R, K298A counted along it
Method: as §1, §2

human CD33 T253A = human CD33 T253A (human, UniProt P20138 18-364)
human CD33 T253A, sequence (P20138 18-364 T253A limits assumed): as the sequence (P20138 18-364 R254A limits assumed) above, with T236A, A237R counted along it
Method: as §1, §2

human CD33 T302A = human CD33 T302A (human, UniProt P20138 18-364)
human CD33 T302A, sequence (P20138 18-364 T302A limits assumed): as the sequence (P20138 18-364 R254A limits assumed) above, with A237R, T285A counted along it
Method: as §1, §2

human CD33 S307A = human CD33 S307A (human, UniProt P20138 18-364)
human CD33 S307A, sequence (P20138 18-364 S307A limits assumed): as the sequence (P20138 18-364 R254A limits assumed) above, with A237R, S290A counted along it
Method: as §1, §2

human CD33 H317A = human CD33 H317A (human, UniProt P20138 18-364)
human CD33 H317A, sequence (P20138 18-364 H317A limits assumed): as the sequence (P20138 18-364 R254A limits assumed) above, with A237R, H300A counted along it
Method: as §1, §2

human CD33 D246A = human CD33 D246A (human, UniProt P20138 18-364)
human CD33 D246A, sequence (P20138 18-364 D246A limits assumed): as the sequence (P20138 18-364 R254A limits assumed) above, with D229A, A237R counted along it
Method: as §1, §2

human CD33 H259A = human CD33 H259A (human, UniProt P20138 18-364)
human CD33 H259A, sequence (P20138 18-364 H259A limits assumed): as the sequence (P20138 18-364 R254A limits assumed) above, with A237R, H242A counted along it
Method: as §1, §2

human CD33 G247A = human CD33 G247A (human, UniProt P20138 18-364)
human CD33 G247A, sequence (P20138 18-364 G247A limits assumed): as the sequence (P20138 18-364 R254A limits assumed) above, with G230A, A237R counted along it
Method: as §1, §2

human CD33 K312A = human CD33 K312A (human, UniProt P20138 18-364)
human CD33 K312A, sequence (P20138 18-364 K312A limits assumed): as the sequence (P20138 18-364 R254A limits assumed) above, with A237R, K295A counted along it
Method: as §1, §2

human CD33 L270A, sequence (P20138 18-364 L270A limits assumed): as the sequence (P20138 18-364 R254A limits assumed) above, with A237R, L253A counted along it
human CD33 G256A, sequence (P20138 18-364 G256A limits assumed): as the sequence (P20138 18-364 R254A limits assumed) above, with A237R, G239A counted along it

Binder	Mean % WT Binding (human CD33 L270A) [% WT binding]	Mean % WT Binding (human CD33 G256A) [% WT binding]	Mean % WT Binding (human CD33 R254A) [% WT binding]	Mean % WT Binding (human CD33 N297A) [% WT binding]	Mean % WT Binding (human CD33 F243A) [% WT binding]	Mean % WT Binding (human CD33 V267A) [% WT binding]	Mean % WT Binding (human CD33 K288A) [% WT binding]	Mean % WT Binding (human CD33 A290S) [% WT binding]	Mean % WT Binding (human CD33 C274A) [% WT binding]	Mean % WT Binding (human CD33 L277A) [% WT binding]	Mean % WT Binding (human CD33 K315A) [% WT binding]	Mean % WT Binding (human CD33 T253A) [% WT binding]	Mean % WT Binding (human CD33 T302A) [% WT binding]	Mean % WT Binding (human CD33 S307A) [% WT binding]	Mean % WT Binding (human CD33 H317A) [% WT binding]	Mean % WT Binding (human CD33 D246A) [% WT binding]	Mean % WT Binding (human CD33 H259A) [% WT binding]	Mean % WT Binding (human CD33 G247A) [% WT binding]	Mean % WT Binding (human CD33 K312A) [% WT binding]
Refmab #4 (antibody, V domains shown, The alanine scan used IgG or Fab) VH: QVQLVQSGAEVKKPGESVKVSCKASGYTFTNYGMNWVKQAPGQGLEWMGWINTYTGEPTYADKFQGRVTMTTDTSTSTAYMEIRNLGGDDTAVYYCARWSWSDGYYVYFDYWGQGTSVTVSS VL: DIVMTQSPDSLTVSLGERTTINCKSSQSVLDSSTNKNSLAWYQQKPGQPPKLLLSWASTRESGIPDRFSGSGSGTDFTLTIDSPQPEDSATYYCQQSAHFPITFGQGTRLEIK	97.3	104	101	88.9	69.9	116	100	107	103	92.2	48.4	108	98.2	114	82.6	104	114	113	98.9
Refmab #3 (antibody, V domains shown, The alanine scan used IgG or Fab) VH: QVQLVQSGAEVKKPGSSVKVSCKASGYTFTDYNMHWVRQAPGQGLEWIGYIYPYNGGTGYNQKFKSKATITADESTNTAYMELSSLRSEDTAVYYCARGRPAMDYWGQGTLVTVSS VL: DIQMTQSPSSLSASVGDRVTITCRASESVDNYGISFMNWFQQKPGKAPKLLIYAASNQGSGVPSRFSGSGSGTDFTLTISSLQPDDFATYYCQQSKEVPWTFGQGTKVEIK	125	94.9	88.4	133	107	106	107	97.2	111	81.9	136	98.1	101	60.1	157	115	104	106	99.6
